Laboratory results as given in publication PMC10491584, “Structural convergence endows nuclear transport receptor Kap114p with a transcriptional repressor function toward TATA-binding protein” (Nature Communications, 2023).
Values joined by “and” are separate entries in the source; they are usually repeats but may differ in a detail not shown here. Equal values may be shown once.

How the values were obtained:
Kap114p = biological target: T1, Kap114p (S. cerevisiae, UniProt P53067 1-1004); assay: ITC; Kap114p (wild type or mutant) 50 uM in the sample cell, partner 500 uM in the syringe; 25 °C; 20 mM HEPES pH 7.4, 150 mM NaCl; triplicate; settings: both partners purified
T1 construct: Kap114p, S. cerevisiae, full length, amplified from total genomic DNA; also called wild type Kap114p; source: E. coli (Rosetta strain), purified (GST resin, MonoQ, Superdex 200)
T1 sequence (looked up): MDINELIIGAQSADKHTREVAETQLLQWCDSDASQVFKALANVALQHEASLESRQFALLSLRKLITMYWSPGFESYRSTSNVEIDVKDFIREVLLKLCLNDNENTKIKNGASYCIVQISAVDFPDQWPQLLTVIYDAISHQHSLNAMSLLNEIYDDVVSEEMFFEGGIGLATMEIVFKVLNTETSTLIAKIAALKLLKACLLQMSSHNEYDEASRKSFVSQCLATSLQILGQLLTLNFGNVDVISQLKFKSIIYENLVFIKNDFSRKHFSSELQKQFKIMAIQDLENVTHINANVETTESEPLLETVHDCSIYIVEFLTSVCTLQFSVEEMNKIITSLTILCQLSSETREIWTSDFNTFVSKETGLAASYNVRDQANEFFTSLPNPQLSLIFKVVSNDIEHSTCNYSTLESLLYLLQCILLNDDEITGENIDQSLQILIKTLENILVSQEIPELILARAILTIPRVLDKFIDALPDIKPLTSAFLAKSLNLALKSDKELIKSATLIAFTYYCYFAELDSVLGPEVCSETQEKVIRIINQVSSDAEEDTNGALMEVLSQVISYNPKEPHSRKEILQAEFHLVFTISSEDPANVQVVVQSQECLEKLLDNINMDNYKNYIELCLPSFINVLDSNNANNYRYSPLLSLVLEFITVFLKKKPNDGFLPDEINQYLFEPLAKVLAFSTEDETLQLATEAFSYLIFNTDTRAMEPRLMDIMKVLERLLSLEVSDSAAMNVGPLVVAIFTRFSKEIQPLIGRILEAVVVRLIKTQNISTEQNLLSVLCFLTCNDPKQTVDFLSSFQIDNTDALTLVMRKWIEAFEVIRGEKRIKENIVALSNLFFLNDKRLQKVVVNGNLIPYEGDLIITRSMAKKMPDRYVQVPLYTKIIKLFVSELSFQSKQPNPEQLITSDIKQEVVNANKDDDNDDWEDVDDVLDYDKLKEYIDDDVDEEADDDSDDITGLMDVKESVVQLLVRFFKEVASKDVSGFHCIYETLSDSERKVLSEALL

Kap114pΔY933 = biological target: T2, Kap114pΔY933 (S. cerevisiae, UniProt P53067 1-1004, ΔY933); assay: as above; settings: both partners purified
T2 construct: Kap114p, S. cerevisiae, full length with residue Y933 deleted; also called Kap114p(DY933); source: E. coli (Rosetta strain), purified (GST resin, MonoQ, Superdex 200)
T2 sequence (looked up): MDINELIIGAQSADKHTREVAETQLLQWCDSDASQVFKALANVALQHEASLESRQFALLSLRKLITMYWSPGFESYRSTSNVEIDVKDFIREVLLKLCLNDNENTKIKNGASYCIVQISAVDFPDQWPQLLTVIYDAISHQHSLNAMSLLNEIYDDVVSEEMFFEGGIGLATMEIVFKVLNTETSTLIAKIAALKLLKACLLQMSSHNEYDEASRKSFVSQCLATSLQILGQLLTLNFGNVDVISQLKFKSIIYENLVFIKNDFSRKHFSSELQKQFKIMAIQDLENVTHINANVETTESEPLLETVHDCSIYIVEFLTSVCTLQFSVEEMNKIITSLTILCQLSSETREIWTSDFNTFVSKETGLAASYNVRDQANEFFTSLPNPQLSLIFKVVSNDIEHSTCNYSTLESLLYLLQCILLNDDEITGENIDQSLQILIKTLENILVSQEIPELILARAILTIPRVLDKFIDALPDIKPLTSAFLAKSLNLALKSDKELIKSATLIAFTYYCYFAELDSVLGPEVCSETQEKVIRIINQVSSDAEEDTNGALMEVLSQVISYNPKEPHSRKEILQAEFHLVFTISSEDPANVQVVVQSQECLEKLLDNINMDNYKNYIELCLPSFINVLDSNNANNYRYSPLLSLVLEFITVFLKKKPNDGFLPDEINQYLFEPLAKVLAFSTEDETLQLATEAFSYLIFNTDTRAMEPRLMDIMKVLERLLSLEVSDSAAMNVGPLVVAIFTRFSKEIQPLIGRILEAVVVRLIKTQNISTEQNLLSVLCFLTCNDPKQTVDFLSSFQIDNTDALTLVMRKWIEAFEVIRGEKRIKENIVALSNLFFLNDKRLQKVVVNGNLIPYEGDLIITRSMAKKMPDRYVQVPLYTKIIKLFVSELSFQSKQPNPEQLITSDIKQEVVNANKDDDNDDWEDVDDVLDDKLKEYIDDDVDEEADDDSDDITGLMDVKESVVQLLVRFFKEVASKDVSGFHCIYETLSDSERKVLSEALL

B1: core domain of yTBP (a.a. 61-240) (domain or fragment, S. cerevisiae, UniProt P13393 61-240, looked up)
chain: SGIVPTLQNIVATVTLGCRLDLKTVALHARNAEYNPKRFAAVIMRIREPKTTALIFASGKMVVTGAKSEDDSKLASRKYARIIQKIGFAAKFTDFKIQNIVGSCDVKFPIRLEGLAFSHGTFSSYEPELFPGLIYRMVKPKIVLLIFVSGKIVLTGAKQREEIYQAFEAIYPVLSEFRKM
notes: 61-240; also called yTBP^C; yTBPc; source: E. coli (Rosetta strain), purified (Ni-NTA, HiTrap SP, Superdex 75); not shown: 6xHis, N-terminal, cleaved
With B1 the Ka (Kap114p) was 9.85e+08 M⁻¹ and 6.92e+08 M⁻¹ and 9.37e+08 M⁻¹, the Ka (Kap114pΔY933) was 1.91e+08 M⁻¹ and 1.5e+08 M⁻¹ and 8.48e+07 M⁻¹ and the Kd (Kap114pΔY933) was 7.7 nM.
